What was measured:
PKB [1] = biological target: T1, PKB (Homo sapiens, UniProt P31749); test: Phosphorylation of peptide substrate in solution, spotted on phosphocellulose plate, scintillation counting; format: biochemical
T1 construct: made in house; host or cells: insect cells
Experimental: (§1) The phosphorylation assay mixture typically comprised:
(§2) The phosphorylation of the polymer-conjugated substrate was carried out in a solution containing 5 μL (˜5 μg peptide) of the conjugated substrate, 10 μL of the indicated enzyme, 10 μL of ADB, and 5 μL of γ-^32P-ATP. After incubation at room temperature for 15 minutes, the reaction was stopped by spotting 10 μL of the sample solution on a phosphocellulose plate and washing with water, 1% phosphoric acid solution, water and ethanol. The radioactivity in each well was measured using a Trilux Microbeta 1450 liquid scintillation counter (Wallac).

PKB [2] = biological target: T1, PKB; test: One-plate assay (non-covalent, medium binding plate); format: biochemical
Experimental: (§3) The one-plate assay was compared with the two-plate assay under the normal conditions employed by the high throughput screening robotic system: a mixture of 5 μL substrate (5 μg), 10 µL enzyme, 10 μL ADB and 5 μL γ-^32P ATP was incubated at room temperature for 20 minutes. In the one-plate assay, a non-covalent, medium binding plate was used.

PKB [3] = biological target: T1, PKB; test: Two-plate assay; format: biochemical
Experimental: as §3

S6K = biological target: T2, S6K (Homo sapiens, UniProt P23443); test: Phosphorylation of peptide substrate in solution, spotted on phosphocellulose plate, scintillation counting; format: biochemical; details: for Ratio: after/before conjugation; for Radioactivity (cpm) Before Conjugation: free peptide before conjugation to polymer; for Radioactivity (cpm) Before Conjugation / Radioactivity (cpm) After conjugation: 15 min room temperature; for Radioactivity (cpm) After conjugation: peptide after conjugation to polymer
T2 construct: made in house
T2 sequence (P23443 whole entry): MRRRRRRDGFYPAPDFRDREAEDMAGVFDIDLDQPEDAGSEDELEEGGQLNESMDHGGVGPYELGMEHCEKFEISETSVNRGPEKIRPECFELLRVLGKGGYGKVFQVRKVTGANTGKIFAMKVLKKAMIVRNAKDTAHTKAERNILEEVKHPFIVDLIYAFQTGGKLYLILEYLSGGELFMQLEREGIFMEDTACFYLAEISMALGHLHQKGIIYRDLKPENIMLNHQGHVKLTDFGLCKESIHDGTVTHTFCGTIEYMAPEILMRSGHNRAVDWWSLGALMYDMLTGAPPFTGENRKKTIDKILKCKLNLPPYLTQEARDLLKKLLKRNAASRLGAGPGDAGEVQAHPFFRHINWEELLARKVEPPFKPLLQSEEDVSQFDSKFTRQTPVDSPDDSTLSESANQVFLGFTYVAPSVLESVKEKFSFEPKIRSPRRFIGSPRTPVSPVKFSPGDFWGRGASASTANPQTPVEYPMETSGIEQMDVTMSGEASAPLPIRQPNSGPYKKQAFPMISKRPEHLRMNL
Experimental: as §1, §2

ERK1 [4] = biological target: T3, ERK1 (Homo sapiens, UniProt P27361); test: as above; format: biochemical; details: for Radioactivity (cpm), polymer effect on the phosphorylation of SEK1-CT by ERK1: SEK1-CT conjugated to the polymer named in the row; for Enhancing effect of polymeric carrier on the substrate activity: SEK1-CT conjugated to the polymer, result in words
T3 sequence (P27361 whole entry, species assumed): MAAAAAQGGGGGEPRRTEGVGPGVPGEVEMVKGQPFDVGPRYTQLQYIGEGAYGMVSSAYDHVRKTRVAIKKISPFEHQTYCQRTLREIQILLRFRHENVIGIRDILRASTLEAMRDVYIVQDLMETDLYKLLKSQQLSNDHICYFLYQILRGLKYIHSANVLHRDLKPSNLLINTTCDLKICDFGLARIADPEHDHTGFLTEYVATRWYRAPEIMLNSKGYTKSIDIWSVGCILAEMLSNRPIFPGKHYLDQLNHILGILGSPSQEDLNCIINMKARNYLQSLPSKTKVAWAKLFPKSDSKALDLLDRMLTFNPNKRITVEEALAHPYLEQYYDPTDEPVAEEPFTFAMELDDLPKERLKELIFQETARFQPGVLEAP
Experimental: as §1, §2

CDK1 = biological target: T4, CDK1 (Homo sapiens, UniProt P06493); test: as above; format: biochemical
T4 construct: made in house; host or cells: bacterial culture
T4 sequence (P06493 whole entry, species assumed): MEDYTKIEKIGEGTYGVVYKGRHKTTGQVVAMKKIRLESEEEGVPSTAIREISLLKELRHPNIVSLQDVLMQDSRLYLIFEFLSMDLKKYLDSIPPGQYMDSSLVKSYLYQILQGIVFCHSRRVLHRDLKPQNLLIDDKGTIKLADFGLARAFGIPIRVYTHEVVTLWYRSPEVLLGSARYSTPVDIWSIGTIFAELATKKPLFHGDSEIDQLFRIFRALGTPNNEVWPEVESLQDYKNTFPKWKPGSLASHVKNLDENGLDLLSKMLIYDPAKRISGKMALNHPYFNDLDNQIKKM
Experimental: as §1, §2

PAK = test: as above; format: biochemical
Experimental: as §1, §2

PIM [5] = biological target: T5, PIM (Xenopus laevis, UniProt Q91822); test: as above; format: biochemical
T5 construct: made in house; host or cells: bacterial culture
T5 sequence (Q91822 whole entry): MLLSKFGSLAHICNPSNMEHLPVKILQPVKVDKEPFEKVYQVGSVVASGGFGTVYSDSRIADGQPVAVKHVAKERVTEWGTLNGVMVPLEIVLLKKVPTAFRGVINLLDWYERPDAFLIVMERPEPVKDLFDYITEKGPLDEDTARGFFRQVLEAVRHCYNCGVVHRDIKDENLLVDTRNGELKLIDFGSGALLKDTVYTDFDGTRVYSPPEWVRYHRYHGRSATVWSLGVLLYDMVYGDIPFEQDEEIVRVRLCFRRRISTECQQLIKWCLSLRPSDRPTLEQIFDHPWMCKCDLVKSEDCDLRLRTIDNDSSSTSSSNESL
Experimental: as §1, §2

PKA = biological target: T6, PKA (Bos taurus, UniProt P00517); test: as above; format: biochemical, bovine
T6 construct: PKA was isloated from bovine heart; from tissue; host or cells: bovine heart
Experimental: CDK1, PAK and PIM were grown in bacterial culture at Kinetek Pharmaceuticals. PIM was isolated as described by Palaty et al. (1997) J Biol Chem 272:10514-10521. PKA was isloated from bovine heart. PKB was expressed in insect cells. S6K was isolated according to Grove et al. (1991) Mol Cell Bio 11:5541-5550. Kinase stock solutions were prepared at concentrations of 1-10 mg/mL in 150 mM Tris-Cl (pH 7.5) containing 5 mg/mL BSA and 100 mM MgCl2.
as §1, §2

PIM [6] = biological target: T5, PIM; test: Phosphorylation of substrate immobilized on covalent, amine-binding plates; format: biochemical; details: amine-binding plate
Experimental: (§4) The polylysine-conjugated peptide substrate was diluted with a PBS buffer (pH 7.4) to a concentration of 0.1 mg/mL. Then 100 μL of the diluted solution was placed into each well of the covalent, amine-binding plate. The plate was incubated at room temperature for one hour and then washed with the PBS buffer three times and distilled water once. The substrate-immobilized plate was then phosphorylated as using standard assay conditions: 10 μL of the indicated enzyme, 15 μL of ADB and 5 μL of γ-^32P-ATP at room temperature for 15 minutes. After phosphorylation, the plate was rinsed sequentially with water, 1% phosphoric acid solution, water, and ethanol. The radioactivity in each well was determined using a Trilux Microbeta liquid scintillation counter. Two polylysine-conjugated substrates were immobilized on the covalent, amine-binding plates and phosphorylation of these immobilized polylysine-conjugated substrates was carried out. Both systems yielded reasonably high signals and the background signals on these plates were less than 500 cpm.
(§5) Effect of pH. In the case of immobilization to covalent, amine-binding plates, the pH effect was investigated. The immobilization of a conjugated-substrate to an covalent, amine-binding plate was achieved by incubating 100 μL of PBS buffer solution containing 10 μg of the conjugated-substrate at room temperature for an hour. […]

ERK1 [7] = biological target: T3, ERK1; test: as above; format: biochemical; details: amine-binding plate
Experimental: as §4, §5

ERK1 [8] = biological target: T3, ERK1; test: Phosphorylation of SEK1-CT immobilized on covalent, amine-binding strips; format: biochemical; details: conjugation simultaneous with phosphorylation, 15 min
Experimental: Immobilization of SEK1-CT on covalent, amine-binding strips was also accomplished in a stepwise procedure: the polymer was immobilized on a covalent, amine-binding plate first (1 hour), then treated with SMCC (1 hour). Conjugation of SEK1-CT to the immobilized polylysine was achieved simultaneously with the phosphorylation by ERK1. The polymers used were polylysine of MW ˜35,000 and poly(lys, ala) 1:1 copolymer of MW ˜35,000. The assay mixture comprising 5 μL of SEK1-CT, 5 μL of ADB, 10 μL of ERK1 and 10 μL of γ-^32P-ATP was incubated at room temperature for 15 minutes. An aliquot (10 μL) was then spotted on a phosphocellulose plate to stop the reaction. The radioactivity on the plate was determined using a Trilux Microbeta liquid scintillation counter. The radioactivity remaining on the surface of the wells after the plate was washed with water and 1% phosphoric acid was determined using a Beckmann liquid scintillation counter. […] Also, the immobilization of polymer-conjugated SEK1-CT on the surfaces enhanced its phosphorylation. The radioactivity observed for the unconjugated SEK1-CT may result from non-specific binding of the amine groups on SEK1-CT to the plate. This non-specific binding could be eliminated by using polylysine as the blocking agent.

ERK1 [9] = biological target: T3, ERK1; test: One-plate assay (non-covalent, medium binding plate); format: biochemical
Experimental: as §3

ERK1 [10] = biological target: T3, ERK1; test: Two-plate assay; format: biochemical
Experimental: as §3

[11] = free peptide before conjugation to polymer
[12] = peptide after conjugation to polymer
[13] = conjugated substrate, 20 minutes

T1 sequence (P31749 whole entry, species assumed): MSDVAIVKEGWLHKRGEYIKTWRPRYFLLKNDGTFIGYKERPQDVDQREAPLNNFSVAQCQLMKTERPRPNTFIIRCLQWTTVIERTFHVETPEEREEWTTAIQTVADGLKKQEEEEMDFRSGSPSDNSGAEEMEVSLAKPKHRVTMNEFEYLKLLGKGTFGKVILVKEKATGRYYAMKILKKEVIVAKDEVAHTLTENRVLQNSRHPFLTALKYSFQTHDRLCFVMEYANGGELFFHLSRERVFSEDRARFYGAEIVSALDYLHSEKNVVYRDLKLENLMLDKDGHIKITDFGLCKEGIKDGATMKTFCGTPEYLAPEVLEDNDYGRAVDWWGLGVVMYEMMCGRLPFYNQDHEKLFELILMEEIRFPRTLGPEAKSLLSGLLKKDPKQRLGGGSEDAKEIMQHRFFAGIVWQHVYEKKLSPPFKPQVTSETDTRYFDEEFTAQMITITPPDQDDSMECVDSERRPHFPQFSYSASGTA

CKRPRAASFAE [PKB-sub]
Ratio (PKB [1]; after/before conjugation): 1.91 | Radioactivity (cpm) Before Conjugation (PKB [1]; [11]): 54300 cpm | Radioactivity (cpm) After conjugation (PKB [1]; [12]): 103900 cpm | S/N ratio PKB-sub (PKB [2]): 81 | Radioactivity (cpm) PKB-sub/PKB Conj (PKB [2]; [13]): 48300 cpm | S/N ratio PKB-sub (PKB [3]): 22 | Radioactivity (cpm) PKB-sub/PKB Free (PKB [3]; free substrate, 20 minutes): 38000 cpm

CKRRRLASLR [S6K-sub]
Ratio (S6K): 2.82 | Radioactivity (cpm) Before Conjugation (S6K): 14000 cpm | Radioactivity (cpm) After conjugation (S6K): 39450 cpm

Polyarginine
Radioactivity (cpm), polymer effect on the phosphorylation of SEK1-CT by ERK1 (ERK1 [4]): 91431 cpm | Enhancing effect of polymeric carrier on the substrate activity (ERK1 [4]): certain enhancement

Polylysine
Radioactivity (cpm), polymer effect on the phosphorylation of SEK1-CT by ERK1 (ERK1 [4]): 211234 cpm | Enhancing effect of polymeric carrier on the substrate activity (ERK1 [4]): highest enhancing effect

Polyhistidine
Enhancing effect of polymeric carrier on the substrate activity (ERK1 [4]): marginal enhancing effect

CGRTGRRNSI [CAPK-sub]
Ratio (CDK1; after/before conjugation): 3.76 | Radioactivity (cpm) Before Conjugation (CDK1; [11]): 12500 cpm | Radioactivity (cpm) After conjugation (CDK1; [12]): 47000 cpm | Ratio (PAK; after/before conjugation): 2.14 | Radioactivity (cpm) Before Conjugation (PAK; [11]): 31050 cpm | Radioactivity (cpm) After conjugation (PAK; [12]): 66510 cpm | Ratio (PIM [5]; after/before conjugation): 2.31 | Radioactivity (cpm) Before Conjugation (PIM [5]; [11]): 18000 cpm | Radioactivity (cpm) After conjugation (PIM [5]; [12]): 41500 cpm | Ratio (S6K): 6.25 | Radioactivity (cpm) Before Conjugation (S6K): 10000 cpm | Radioactivity (cpm) After conjugation (S6K): 62500 cpm | Ratio (PKA; after/before conjugation): 1.10 | Radioactivity (cpm) Before Conjugation (PKA; [11]): 35680 cpm | Radioactivity (cpm) After conjugation (PKA; [12]): 39425 cpm | Radioactivity (cpm) Free substrate (PIM [6]): ≦300 cpm

CKILDQMPATPSSPMYVD [SEK1-CT]
Ratio (ERK1 [4]; after/before conjugation): 48.28 | Radioactivity (cpm) Before Conjugation (ERK1 [4]; [11]): 2390 cpm | Radioactivity (cpm) After conjugation (ERK1 [4]; [12]): 115400 cpm | Radioactivity (cpm) Free substrate (ERK1 [7]): <500 cpm | Radioactivity (cpm) (ERK1 [8]): 7570 cpm | S/N ratio SEK1-CT (ERK1 [9]): 117 | Radioactivity (cpm) SEK1-CT/ERK1 Conj (ERK1 [9]; [13]): 41000 cpm | S/N ratio SEK1-CT (ERK1 [10]): 16 | Radioactivity (cpm) SEK1-CT/ERK1 Free (ERK1 [10]; free substrate, 20 minutes): 2800 cpm

Reference: patent US6548266B1, “Assay for detecting the enzymatic activity of a phosphorylation enzyme using enhanced signal generation” (Kinetek Pharmaceuticals, Inc., priority 1999, dated 2003)
